± gives the uncertainty stated by the source.
Test: self-splicing fitness, log relative to wild type (ln ratio); higher = more splicing; Tetrahymena group I intron in knt gene, E. coli kanamycin selection, DiMSum; sequences stand for … in CUCUCU…GGAGGGAAAAGUUAUCAGGCAUGCACCUGGUAGCUAGUCUUUAAACCAAUAGAUUGCAUCGGUUUAAAAGGCAAGACCGUCAAAUUGCGGGAAAGGGGUCAACAGCCGUUCAGUACCAAGUCUCAGGGGAAACUUUGAGAUGGCCUUGCAAAGGGUAUGGUAAUAAGCUGACGGACAUGGUCCUAACCACGCAGCCAAGUCCUAAGUCAACAGAUCUUCUGUUGAUAUGGAUGCAGUUCACAGACUAAAUGUCGGUCGGGGAAGAUGUAUUCUUCUCAUAAGAUAUAGUCGGACCUCUCCUUAAUGGGAGCUAGCGGAUGAAGUGAUGCAACACUGGAGCCGCUGGGAACUAAUUUGUAUGCGAAAGUAUAUUGAUUAGUUUUGGAGUACUCGUGGUCG
Procedure, shortened: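 The eight P1ex-region nucleotides of an intron in the knt kanamycin-resistance gene on pET-22b(+) were all randomised and the library put into E. coli BL21(DE3). Six replicate transformations were grown overnight at 37°C or 30°C on LB agar with or without 25 μg/mL kanamycin, together with 100 μg/mL carbenicillin, 50 μM IPTG and 0.2% rhamnose. Colonies were pooled and amplicon-sequenced on an Illumina HiSeq 2500. Fitness from DiMSum is the error-weighted combination of wild-type-normalised replicate fold changes, kanamycin over none.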

Sequence	self-splicing fitness (ln) (30 °C)	self-splicing fitness (ln) (37 °C)
AUAAAGCAAUAUUACGCAAU	-0.8 ± 0.074	-0.703 ± 0.11
CGAGAGCAAUAUUACGGUUU	-3.15 ± 0.15	-2.58 ± 0.21
AGUUAGCAAUAUUACGUCGC	-2.96 ± 0.39	-0.924 ± 0.18
CGGGAGCAAUAUUACGGUAC	-2.19 ± 0.38	
AAGUAGCAAUAUUACGGCUG	-0.444 ± 0.083	-0.731 ± 0.13
CUCGAGCAAUAUUACGUUGG	-3.48 ± 0.18	-3.17 ± 0.14
ACCCAGCAAUAUUACGAAUG	-3.41 ± 0.13	-1.2 ± 0.13
CUGUAGCAAUAUUACGUGCA	-2.56 ± 0.18	-2.5 ± 0.16
UAUCAGCAAUAUUACGAAUU	-0.95 ± 0.076	0.113 ± 0.09
CUCGAGCAAUAUUACGGCUU	-2.57 ± 0.47	
UACCAGCAAUAUUACGGGGU	-4.41 ± 0.16	-2.68 ± 0.15
CGUCAGCAAUAUUACGCGCC	-1.58 ± 0.16	-0.529 ± 0.29
GCUUAGCAAUAUUACGGCGG	-3.5 ± 0.2	-3.14 ± 0.26
GAGCAGCAAUAUUACGUGGG	-3.13 ± 0.24	-3.03 ± 0.27
UCCUAGCAAUAUUACGGGAG	-2.27 ± 0.25	-2.37 ± 0.35
UUAAAGCAAUAUUACGCUUA	-1.02 ± 0.083	-0.561 ± 0.11
CCUCAGCAAUAUUACGGGGC	-3.68 ± 0.14	-2.98 ± 0.19
CGUCAGCAAUAUUACGUCGU	-3 ± 0.09	-1.99 ± 0.11
UCUAAGCAAUAUUACGAAUU	-3.75 ± 0.31	-2.66 ± 0.25
ACAUAGCAAUAUUACGUACG	-2.39 ± 0.12	-1.87 ± 0.16
CUUCAGCAAUAUUACGGGAU	-2.14 ± 0.084	-1.34 ± 0.095
GGGCAGCAAUAUUACGAUAA	-2.67 ± 0.21	-1.75 ± 0.18
GGCCAGCAAUAUUACGUUGG	-3.91 ± 0.25	-3.17 ± 0.25
CCCAAGCAAUAUUACGUGUG	-2.98 ± 0.071	-3.12 ± 0.094
CAGUAGCAAUAUUACGUAGC	-3.32 ± 0.12	-3.18 ± 0.17
GCGAAGCAAUAUUACGUACG	-2.46 ± 0.37	-2.24 ± 0.34

Sequence	self-splicing fitness (ln) (30 °C)	self-splicing fitness (ln) (37 °C)
AUCUAGCAAUAUUACGGGAA	-0.643 ± 0.13	-0.903 ± 0.14
CGUAAGCAAUAUUACGUUAG	-1.34 ± 0.072	-0.964 ± 0.081
AACAAGCAAUAUUACGCGGG	-3.55 ± 0.14	-2.46 ± 0.15
CAGAAGCAAUAUUACGUACG	-0.111 ± 0.089	0.665 ± 0.14
UAUAAGCAAUAUUACGCCCU	-1.15 ± 0.16	0.38 ± 0.16
UUUCAGCAAUAUUACGCAAA	-2.1 ± 0.15	-0.378 ± 0.13
UCCGAGCAAUAUUACGAAAG	-3.3 ± 0.33	-2.65 ± 0.32
CUGGAGCAAUAUUACGAAUA	-3.07 ± 0.4	-2.15 ± 0.47
GCUUAGCAAUAUUACGUGUU	-0.915 ± 0.081	-0.409 ± 0.087
CGGUAGCAAUAUUACGUAAU	-3.97 ± 0.47	
UAUUAGCAAUAUUACGGUUG	-0.953 ± 0.15	-0.107 ± 0.17
GGUUAGCAAUAUUACGGCCC	-1.23 ± 0.43	
CGAGAGCAAUAUUACGCUUU		-2.33 ± 0.39
GACAAGCAAUAUUACGAAGC	-2.96 ± 0.22	-2.15 ± 0.28
GGUCAGCAAUAUUACGGCUA	0.0808 ± 0.098	0.494 ± 0.12
AAGGAGCAAUAUUACGGCUG	-2.21 ± 0.23	-1.37 ± 0.27
GUAGAGCAAUAUUACGGACG	-2.8 ± 0.36	-1 ± 0.3
CGAUAGCAAUAUUACGCAGU	-2.96 ± 0.19	-2.48 ± 0.19
AGUAAGCAAUAUUACGAGGG	-3.06 ± 0.18	-2.87 ± 0.28
CGUUAGCAAUAUUACGUCAA		-1.41 ± 0.38
AAUUAGCAAUAUUACGUCGU	-0.641 ± 0.1	-0.862 ± 0.12
CAAGAGCAAUAUUACGCCUU	-3.52 ± 0.32	-2.57 ± 0.41
GAAUAGCAAUAUUACGAUCA	-1.11 ± 0.12	0.308 ± 0.11
GUAGAGCAAUAUUACGGUAG	-2.36 ± 0.12	-1.24 ± 0.13
AGGCAGCAAUAUUACGUAAG	-1.77 ± 0.13	-0.486 ± 0.17
CUUUAGCAAUAUUACGGUCG	-0.496 ± 0.055	-0.259 ± 0.083

Sequence	self-splicing fitness (ln) (30 °C)	self-splicing fitness (ln) (37 °C)
UGGGAGCAAUAUUACGAGCA	-1.28 ± 0.18	-0.71 ± 0.18
UGAAAGCAAUAUUACGUCCU	-0.649 ± 0.091	-0.195 ± 0.081
UAUUAGCAAUAUUACGAUCA	-0.168 ± 0.11	-0.249 ± 0.14
CGUCAGCAAUAUUACGAUGU	-1.73 ± 0.11	-1.53 ± 0.098
GAUUAGCAAUAUUACGCUGA	-3.17 ± 0.23	-2.53 ± 0.27
CCCCAGCAAUAUUACGUGUU	-3.79 ± 0.12	-3.3 ± 0.17
CAAGAGCAAUAUUACGAGAC	-2.43 ± 0.37	-1.93 ± 0.35
UGAAAGCAAUAUUACGGGGA	-1.92 ± 0.21	-0.977 ± 0.19
AAGCAGCAAUAUUACGGUGC	-3.29 ± 0.15	-1.61 ± 0.14
CUCCAGCAAUAUUACGUGAU	-2.1 ± 0.078	-1.59 ± 0.1
AUGAAGCAAUAUUACGCAUC	-4.84 ± 0.29	-2.45 ± 0.17
CGACAGCAAUAUUACGAUAG	-0.383 ± 0.06	-0.728 ± 0.07
AUGGAGCAAUAUUACGGAAU	-2.66 ± 0.32	-2.02 ± 0.47
AUUUAGCAAUAUUACGAGUU	-2.58 ± 0.3	-0.85 ± 0.23
GAUUAGCAAUAUUACGUGGG	-3.52 ± 0.32	-2.47 ± 0.27
GUGAAGCAAUAUUACGGGAA	-2.11 ± 0.12	-0.793 ± 0.11
UGAUAGCAAUAUUACGUCCA	0.015 ± 0.09	0.154 ± 0.12
GAAAAGCAAUAUUACGUUAG	-2.27 ± 0.12	-1.85 ± 0.14
ACCCAGCAAUAUUACGGGCG	-0.609 ± 0.055	-0.0252 ± 0.077
GAUUAGCAAUAUUACGUUUA	-2.9 ± 0.25	-1.05 ± 0.15
CCUGAGCAAUAUUACGAGGG	-3.48 ± 0.19	-2.22 ± 0.23
GGGUAGCAAUAUUACGUUCU	-0.416 ± 0.11	-0.164 ± 0.13
GUUUAGCAAUAUUACGGGCG	-0.544 ± 0.2	-1.38 ± 0.21
GGAAAGCAAUAUUACGACGC	-0.197 ± 0.1	0.595 ± 0.16
UGCGAGCAAUAUUACGGGAU	-3.78 ± 0.35	-2.21 ± 0.28
